T1: human CTLA4 (cytotoxic T-lymphocyte-associated antigen-4), isoform CTLA4-TM (human, UniProt P16410 36-223)
T1 sequence: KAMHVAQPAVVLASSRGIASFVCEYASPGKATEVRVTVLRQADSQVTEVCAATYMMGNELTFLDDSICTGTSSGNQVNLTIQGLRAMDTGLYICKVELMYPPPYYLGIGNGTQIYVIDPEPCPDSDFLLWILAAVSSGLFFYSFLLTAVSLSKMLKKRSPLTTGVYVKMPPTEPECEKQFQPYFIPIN


Tests used:
[1] = target: human CTLA4 (cytotoxic T-lymphocyte-associated antigen-4), isoform CTLA4-TM (human) (UniProt P16410); assay: cell-based or functional assay
[2] = target: T1, human CTLA4 (cytotoxic …); assay: cell-based or functional assay

| Binder | maximal activity (ratio RLU), αCTLA 4 functional blockade assay [1] [ratio RLU] | plateau of the titration curve (ratio RLU over background) at 200 nM or greater [1] [ratio RLU] | biological activity relative to Ipilimumab, Promega anti-CTLA 4 and anti-CTLA 4 + anti-PD1 functional blockade assays [2] | half maximum activity concentration, αCTLA 4 functional blockade assay [2] [nM] |
| --- | --- | --- | --- | --- |
| L3D10 (antibody, from another filing, V domains shown) VH: QVQLKESGPGLVAPSQSLSITCTVSGFSLTSYGLSWVRQPPGKGLEWLGVIWYDGNTNFHSALISRLTISKDNSKSQVFLELNSLQTDDTATYYCAKTEGHYYGSNYGYYALDYWGQGTSVTVSS VL: DIQMTQSPASLSVSVGETVTITCRASENIYSNLAWYQQKQGKSPQLLVYAATNLADGVPSRFSGSGSGTQYSLKINSLQSEDFGTYFCQHLWGTPYTFGGGTKLEIKR | 15 | 15 to 20 |  |  |
| BNI3, mouse IgG2a anti-human CTLA4 (CD152) antibody from BioXcell (antibody, V domains shown) VH: DVQLQESGPGLVKPSQSLSLTCSVTGYSITSGYVWNWIRQFPGNKLEWMGYISHDGNTNYNPSLKNRISITRDTSKNQFFLKLNSVTTEDSATYYCTRNYGYGGTMDYWGQGTAVSVSS VL: DIVMTQSQKFMSTSVGDRVSVTCKASQNVGTYVAWYEQKLGQSPKALIFSASYRYTGVPDRFTGSGSGTDFTLTISNVQSEDLAEYFCQQYDSYPLTFGGGTKLEIKR |  |  | < 60 % of Ipilimumab activity | ~50 |
| BioE2032 (121 HuIgG1) (antibody, V domains shown) VH: QVQLQESGPGLVKPSQTLSLTCTVSGFSLTSYGVYWVRQPPGKGLEWLGVIWAGGTTNYNSALMSRLTISKDTSKNQVSLKLSSVTAADTAVYYCARGPPHAMMKRGYAMDYWGQGTLVTVSS VL: DIQMTQSPSSLSASVGDRVTITCSATSSITYMSWYQQKPGKAPKLLIYDTSNLASGVPSRFSGSGSGTDYTLTISSLQPEDFATYYCQQWSSYPLTFGGGTKLEIK |  |  |  | ~50 |

Reference: patent publication US20260053913A1 (BIOENTRE, published 2026)
